In publication PMC3438722, “DNA Binding in High Salt: Analysing the Salt Dependence of Replication Protein A3 from the Halophile Haloferax volcanii” (Archaea, 2012):

B1: Replication protein A3 from Haloferax volcanii, full length (natural protein, UniProt D4GZS1 1-311, looked up)
chain: MTDLRTHAAEIADQFSDHLDVSADEVEERLESLVTEYRVPVDEARRSVVNSYLDEAGIERDELAGGSGGNEQTLLNDIDEDEQWVDVRAKVVELWEPRSESIAQVGLLGDDSGRMKFVSFTTSELPELEEGKSYALGNVVTDEYQGNFSVKLNRTTSITELDEEIEVGDDSTSVEGALVDSQSGSGLIKRCPEEGCTRVLQNGRCSEHGSVEGEFDLRIKAVVDDGDEVHEVIFNREMTEELTGIELDEAKQMAMDALDTTIVEEEMRGDLVGYYYRVTGPTLGRYVLANEVERLREPADAEELLIKARSM
notes: Replication protein A3 (RPA3) of Haloferax volcanii, amplified from genomic DNA of wild-type DS2; full length, residues 1-311 (the CTD construct ends at 311); Oligomeric state depends on the salt concentration; Tagged protein has a predicted MW of 35.4 x 10^3; also called HvRPA3; RPA3; source: E. coli B834 (DE3), purified (ammonium sulphate fractionation, Talon resin, Superdex 200); not shown: …
B2: HvRPA3 C-terminal domain (residues 164-311), second size exclusion peak (CTD-2) (domain or fragment, Haloferax volcanii, UniProt D4GZS1 164-311, looked up)
chain: EIEVGDDSTSVEGALVDSQSGSGLIKRCPEEGCTRVLQNGRCSEHGSVEGEFDLRIKAVVDDGDEVHEVIFNREMTEELTGIELDEAKQMAMDALDTTIVEEEMRGDLVGYYYRVTGPTLGRYVLANEVERLREPADAEELLIKARSM
notes: Replication protein A3 (RPA3) of Haloferax volcanii, C-terminal domain residues 164-311, holds the zinc finger motif; Same construct as m3; the peak of lower apparent mass in the last purification step; Holds zinc (0.53 mol/mol); also called HvRPA3-CTD-2; source: E. coli B834 (DE3), purified (ammonium sulphate fractionation, Talon resin, Superdex 200; second of two peaks); not shown: 6xHis, …
B3: HvRPA3 C-terminal domain (residues 164-311), first size exclusion peak (CTD-1) (domain or fragment, Haloferax volcanii, UniProt D4GZS1 164-311, looked up)
chain: B2 chain
notes: Replication protein A3 (RPA3) of Haloferax volcanii, C-terminal domain residues 164-311, holds the zinc finger motif; Same construct as m4; the peak of higher apparent mass in the last purification step, concentrated apart; also called HvRPA3-CTD-1; source: E. coli B834 (DE3), purified (ammonium sulphate fractionation, Talon resin, Superdex 200; first of two peaks); not shown: 6xHis, N-terminal, …
B4: HvRPA3 N-terminal domain (residues 1-163) (domain or fragment, Haloferax volcanii, UniProt D4GZS1 1-163, looked up)
chain: MTDLRTHAAEIADQFSDHLDVSADEVEERLESLVTEYRVPVDEARRSVVNSYLDEAGIERDELAGGSGGNEQTLLNDIDEDEQWVDVRAKVVELWEPRSESIAQVGLLGDDSGRMKFVSFTTSELPELEEGKSYALGNVVTDEYQGNFSVKLNRTTSITELDE
notes: Replication protein A3 (RPA3) of Haloferax volcanii, N-terminal domain residues 1-163, holds the OB-fold; Tagged construct has a predicted MW of 18.9 x 10^3; also called NTD; HvRPA3-NTD; source: E. coli B834 (DE3), purified (ammonium sulphate fractionation, Talon resin, Superdex 200); not shown: 6xHis, N-terminal, kept
B5: Cy5-18mer ssDNA (FA) (ssDNA)
DNA: GCGTGTGTGGTGGTGTGC
B6: 18mer ssDNA (SEC) (ssDNA)
DNA: GCGTGTGTGGTGGTGTGC

Tests used:
[1] = biological target: the molecule itself; assay: SEC; analytical, 10/300 Superdex 200, 50 mM HEPES pH 7.0, 0.2 M KCl; 250 ug protein incubated one hour in the buffer; calibrated with gel filtration standards
[2] = biological target: the molecule itself; assay: SEC; analytical, 10/300 Superdex 200, 50 mM HEPES pH 7.0, 1.0 M KCl; 250 ug protein incubated one hour in the buffer; calibrated with gel filtration standards
[3] = biological target: the molecule itself; assay: SEC; last step of the purification, 26/60 Superdex 200, 50 mM Hepes pH 7.0, 1.0 M NaCl
[4] = biological target: the molecule itself; assay: SEC; analytical, 10/300 Superdex 200, 50 mM HEPES pH 7.0, 1.0 M KCl, with equimolar (monomer equivalent) 18mer ssDNA
HvRPA3 full length [5] = biological target: T1, HvRPA3 full length (Haloferax volcanii DS2 (wild-type), UniProt D4GZS1 1-311); assay: fluorescence anisotropy; 3 M KCl; Hill 1.2 ± 0.1; FA: 50 mM HEPES pH 7.0, 10% glycerol, 0.03% BSA, 20 nM Cy5-oligo, 0.2, 1 or 3 M KCl, room temperature 10 min; SEC: 50 mM HEPES pH 7.0, 0.2, 1 or 3 M KCl; EMSA:; conditions: protein: recombinant; tags: N-terminal 6xHis; label: 5' Cy5; single strand
T1 sequence: B1 chain

HvRPA3 CTD-1 [6] = biological target: T2, HvRPA3 CTD-1 (Haloferax volcanii DS2 (wild-type), UniProt D4GZS1 164-311); assay: fluorescence anisotropy; any KCl condition; data not shown; FA: 50 mM HEPES pH 7.0, 10% glycerol, 0.03% BSA, 20 nM Cy5-oligo, 0.2, 1 or 3 M KCl, room temperature 10 min; SEC: 50 mM HEPES pH 7.0, 0.2, 1 or 3 M KCl; EMSA:; conditions: protein: recombinant; tags: N-terminal 6xHis; chain copies: 4; label: 5' Cy5; single strand
T2 sequence: B2 chain

HvRPA3 CTD-2 [7] = biological target: T3, HvRPA3 CTD-2 (Haloferax volcanii DS2 (wild-type), UniProt D4GZS1 164-311); assay: as above; conditions: protein: recombinant; tags: N-terminal 6xHis; label: 5' Cy5; single strand
T3 sequence: B2 chain

HvRPA3 full length [8] = biological target: T1, HvRPA3 full length; assay: fluorescence anisotropy; 1 M KCl; Hill 0.9 ± 0.1; monomer equivalents; FA: 50 mM HEPES pH 7.0, 10% glycerol, 0.03% BSA, 20 nM Cy5-oligo, 0.2, 1 or 3 M KCl, room temperature 10 min; SEC: 50 mM HEPES pH 7.0, 0.2, 1 or 3 M KCl; EMSA:; conditions: protein: recombinant; tags: N-terminal 6xHis; label: 5' Cy5; single strand
HvRPA3-NTD (OB-fold) = biological target: T4, HvRPA3-NTD (OB-fold) (Haloferax volcanii DS2 (wild-type), UniProt D4GZS1 1-163); assay: fluorescence anisotropy; 1 M KCl; two-site fit, high-affinity site; dimer concentration; FA: 50 mM HEPES pH 7.0, 10% glycerol, 0.03% BSA, 20 nM Cy5-oligo, 0.2, 1 or 3 M KCl, room temperature 10 min; SEC: 50 mM HEPES pH 7.0, 0.2, 1 or 3 M KCl; EMSA:; conditions: protein: recombinant; tags: N-terminal 6xHis; label: 5' Cy5; single strand
T4 sequence: B4 chain

HvRPA3 CTD-1 [9] = biological target: T2, HvRPA3 CTD-1; assay: analytical SEC; any KCl condition (0.2, 1, 3 M); data not shown; FA: 50 mM HEPES pH 7.0, 10% glycerol, 0.03% BSA, 20 nM Cy5-oligo, 0.2, 1 or 3 M KCl, room temperature 10 min; SEC: 50 mM HEPES pH 7.0, 0.2, 1 or 3 M KCl; EMSA:; conditions: protein: recombinant; tags: N-terminal 6xHis; chain copies: 4; single strand
HvRPA3 CTD-2 [10] = biological target: T3, HvRPA3 CTD-2; assay: as above; conditions: protein: recombinant; tags: N-terminal 6xHis; single strand

Row | Binder | stoichiometry N [1] | stoichiometry N [2] | stoichiometry N [3] | further results
1 | B1 | 4 | 2 | – | –
2 | B2 | 3 | – | 2 | –
3 | B3 | 7 | 5 | 4 | –
4 | B4 | 3 | – | – | stoichiometry N [4]: 2
5 | B5 | – | – | – | Kd (HvRPA3 full length [5]): 24.1 ± 2.9 nM; binding result (HvRPA3 CTD-1 [6]): no binding; binding result (HvRPA3 CTD-2 [7]): no binding; Kd (HvRPA3 full length [8]): 53.9 ± 18.3 nM; Kd (HvRPA3-NTD (OB-fold)): 4.1 ± 7.9 nM
6 | B6 | – | – | – | binding result (HvRPA3 CTD-1 [9]): no binding; binding result (HvRPA3 CTD-2 [10]): no binding
